Values joined by “and” are separate entries in the source; they are usually repeats but may differ in a detail not shown here. Equal values may be shown once.
B1: Alpha-lactalbumin, P00712 (parent)
chain: MMSFVSLLLVGILFHATQAEQLTKCEVFQKLKDLKDYGGVSLPEWVCTAFHTSGYDTQAIVQNNDSTEYGLFQINNKIWCKDDQNPHSRNICNISCDKFLDDDLTDDIVCAKKILDKVGINYWLAHKALCSEKLDQWLCEKL

Variants of: B1
Settings: Capra hircus; pH 7; Thermal; CD; sodium cacodylate 50 mM; NaCl 50 mM; reversible: Yes; structure 1HFY; whole UniProt chain shown

Row | Variant | Tm | change of melting temperature, mutant - wild type (higher = more stable) | heat capacity change of unfolding [kcal/mol/K] | unfolding enthalpy (van 't Hoff)
1 | T57A | 59 °C and 54.1 °C | -6.8 °C and -4.9 °C | 1.8 | 68.8 kcal/mol and 62.5 kcal/mol
